B1: Ras-related protein Rab-5C (Homo sapiens), P51148 (parent)
chain: MAGRGGAARPNGPAAGNKICQFKLVLLGESAVGKSSLVLRFVKGQFHEYQESTIGAAFLTQTVCLDDTTVKFEIWDTAGQERYHSLAPMYYRGAQAAIVVYDITNTDTFARAKNWVKELQRQASPNIVIALAGNKADLASKRAVEFQEAQAYADDNSLLFMETSAKTAMNVNEIFMAIAKKLPKNEPQNATGAPGRNRGVDLQENNPASRSQCCSN
partner: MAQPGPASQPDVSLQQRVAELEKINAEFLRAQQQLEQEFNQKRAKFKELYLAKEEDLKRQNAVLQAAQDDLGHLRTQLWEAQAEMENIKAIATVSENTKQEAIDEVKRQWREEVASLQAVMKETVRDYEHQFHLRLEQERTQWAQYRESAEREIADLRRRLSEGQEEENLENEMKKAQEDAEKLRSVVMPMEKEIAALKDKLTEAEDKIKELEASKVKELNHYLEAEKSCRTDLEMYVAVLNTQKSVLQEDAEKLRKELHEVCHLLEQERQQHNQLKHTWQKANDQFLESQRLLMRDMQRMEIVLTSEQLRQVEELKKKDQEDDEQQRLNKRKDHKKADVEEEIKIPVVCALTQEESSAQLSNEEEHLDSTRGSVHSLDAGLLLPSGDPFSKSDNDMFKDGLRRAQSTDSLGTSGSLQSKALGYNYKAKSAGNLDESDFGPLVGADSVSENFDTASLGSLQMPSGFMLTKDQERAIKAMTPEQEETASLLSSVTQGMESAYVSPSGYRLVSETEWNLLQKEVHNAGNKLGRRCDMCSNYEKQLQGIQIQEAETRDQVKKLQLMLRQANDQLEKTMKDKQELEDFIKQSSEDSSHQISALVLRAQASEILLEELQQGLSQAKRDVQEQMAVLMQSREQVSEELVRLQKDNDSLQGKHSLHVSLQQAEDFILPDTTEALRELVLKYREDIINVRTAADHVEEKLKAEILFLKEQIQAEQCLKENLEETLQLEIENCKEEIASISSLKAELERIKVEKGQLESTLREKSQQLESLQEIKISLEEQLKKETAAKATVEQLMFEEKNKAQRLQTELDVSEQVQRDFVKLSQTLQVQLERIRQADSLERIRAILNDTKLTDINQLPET
B2: Ras-related protein Rab-5C (Homo sapiens), P51148 (parent)
chain: B1 chain
B3: Ras-related protein Rab-5C (Homo sapiens), P51148 (parent)
chain: B1 chain
partner: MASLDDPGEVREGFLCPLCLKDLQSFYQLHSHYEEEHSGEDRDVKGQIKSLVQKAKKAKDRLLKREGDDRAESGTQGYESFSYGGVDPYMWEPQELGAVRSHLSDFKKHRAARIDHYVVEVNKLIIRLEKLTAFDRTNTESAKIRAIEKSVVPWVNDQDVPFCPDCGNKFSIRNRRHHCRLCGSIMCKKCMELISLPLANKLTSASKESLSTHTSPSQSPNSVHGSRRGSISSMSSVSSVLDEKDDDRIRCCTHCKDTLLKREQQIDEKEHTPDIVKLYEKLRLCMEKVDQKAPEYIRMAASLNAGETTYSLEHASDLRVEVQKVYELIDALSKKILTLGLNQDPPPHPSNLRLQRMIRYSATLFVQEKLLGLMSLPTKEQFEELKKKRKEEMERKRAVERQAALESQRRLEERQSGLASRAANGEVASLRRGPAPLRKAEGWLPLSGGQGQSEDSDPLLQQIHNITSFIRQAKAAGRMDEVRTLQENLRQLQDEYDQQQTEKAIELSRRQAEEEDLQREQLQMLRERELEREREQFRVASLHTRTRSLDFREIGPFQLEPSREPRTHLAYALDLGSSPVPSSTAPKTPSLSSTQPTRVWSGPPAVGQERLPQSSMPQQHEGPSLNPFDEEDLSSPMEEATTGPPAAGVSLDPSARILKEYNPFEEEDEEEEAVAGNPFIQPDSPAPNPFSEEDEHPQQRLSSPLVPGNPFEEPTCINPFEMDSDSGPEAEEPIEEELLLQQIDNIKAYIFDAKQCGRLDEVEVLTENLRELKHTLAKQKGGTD

The variants in one assay derive from B1. As to conditions: with rabe1_human RABEP1, Q15276.
For the variant R92A, the “effect of a mutation on the interaction” value was “with no effect”.

Variants of B2 are the subject of another assay. Particulars: with eea1_human EEA1, Q15075.
Chain of eea1_human EEA1, Q15075 (Q15075 whole entry): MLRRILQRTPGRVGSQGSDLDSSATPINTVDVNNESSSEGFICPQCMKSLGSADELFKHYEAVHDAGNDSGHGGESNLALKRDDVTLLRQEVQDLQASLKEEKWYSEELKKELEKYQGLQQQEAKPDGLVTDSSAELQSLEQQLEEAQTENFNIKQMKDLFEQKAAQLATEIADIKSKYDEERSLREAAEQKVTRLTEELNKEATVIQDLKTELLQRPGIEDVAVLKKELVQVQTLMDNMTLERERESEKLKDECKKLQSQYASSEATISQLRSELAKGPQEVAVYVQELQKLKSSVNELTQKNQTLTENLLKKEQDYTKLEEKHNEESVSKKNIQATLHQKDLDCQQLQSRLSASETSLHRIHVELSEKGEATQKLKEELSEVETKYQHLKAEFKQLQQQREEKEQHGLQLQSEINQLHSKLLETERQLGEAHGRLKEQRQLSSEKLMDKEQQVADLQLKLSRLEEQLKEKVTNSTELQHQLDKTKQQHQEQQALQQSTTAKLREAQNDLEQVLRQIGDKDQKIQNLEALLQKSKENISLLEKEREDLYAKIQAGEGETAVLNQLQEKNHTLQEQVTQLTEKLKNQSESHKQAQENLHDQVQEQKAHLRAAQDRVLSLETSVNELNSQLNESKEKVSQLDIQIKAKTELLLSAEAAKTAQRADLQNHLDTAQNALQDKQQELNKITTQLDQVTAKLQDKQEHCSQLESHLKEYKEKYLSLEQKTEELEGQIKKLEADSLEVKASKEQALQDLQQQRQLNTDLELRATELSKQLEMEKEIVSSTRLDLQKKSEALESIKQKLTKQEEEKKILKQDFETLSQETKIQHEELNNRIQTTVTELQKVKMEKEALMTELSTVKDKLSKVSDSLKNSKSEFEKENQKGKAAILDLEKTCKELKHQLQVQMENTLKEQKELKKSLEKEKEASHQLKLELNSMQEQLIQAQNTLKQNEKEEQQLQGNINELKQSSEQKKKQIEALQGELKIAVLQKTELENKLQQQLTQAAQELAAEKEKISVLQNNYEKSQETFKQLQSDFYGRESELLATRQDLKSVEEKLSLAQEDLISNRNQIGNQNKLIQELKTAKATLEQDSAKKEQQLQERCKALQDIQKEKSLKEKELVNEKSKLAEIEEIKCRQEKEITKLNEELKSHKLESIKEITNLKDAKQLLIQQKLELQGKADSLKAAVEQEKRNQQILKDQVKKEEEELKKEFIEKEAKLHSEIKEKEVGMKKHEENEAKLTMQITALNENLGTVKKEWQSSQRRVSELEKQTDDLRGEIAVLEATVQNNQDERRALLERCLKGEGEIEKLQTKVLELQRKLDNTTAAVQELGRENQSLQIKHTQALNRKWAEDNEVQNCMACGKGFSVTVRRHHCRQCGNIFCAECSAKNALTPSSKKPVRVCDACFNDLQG
As for R92A, the “effect of a mutation on the interaction” value is on record as “decreasing interaction”.

Another assay covers variants of B3. Particulars: with rbns5_human RBSN.
As to R92A, the “effect of a mutation on the interaction” value is reported as “decreasing interaction”.

(Values after IntAct's records for PubMed 25114243.)
